Patent CN111662379A

What was measured:
[1] = molecular target: T1, 重组SARS-CoV-2刺突蛋白胞外区 (extra cellular domain of spike protein, S-ECD) (SARS-CoV-2), P0DTC2; test: indirect ELISA, S-ECD coated at 1μg/ml; conditions: remark: other sources report otherwise
[2] = molecular target: T1, 重组SARS-CoV-2刺突蛋白胞外区 (extra cellular …); test: SPR, Biacore 8K, S-ECD immobilised on a CM5 chip, antibody injected at 125nM~7.8nM; conditions: remark: other sources report otherwise

B1: FC05 (antibody)
chain 1: EVQLLEQSGAEVKKPGASVRVSCKVSGYTLPEVAMHWVRQAPGKGLEWMGGFDPEDGETIYAQKFQGRVTMTEDTSTDTAYMELSSLRSEDTAVYYCATTTPFSSSFWFDPWGQGTLVTVSS
chain 2: QSVLTQAPSVSGAPGQKVTISCSGSSSNIGNNYVSWYQQLPGTAPKLLIYDNNKRPSGIPDRFSGSKSGTSATLGITGLQTGDEADYYCGTWDSSLSAVVFGGGTKLTVL
B1 gave a 抗体滴度 (dilution 1:x from 1mg/mL) [1] of 320000 and a Kd [2] of 0.1 nM.
